Assays:
[1] = target: HigA2Phd (Vibrio cholerae (globular domain); Phd IDR organism not stated) (UniProt Q9KMA5); assay: ITC; conditions: ITC: 20 mM sodium phosphate pH 7.0, 150 mM NaCl, 1 mM EDTA, 25 or 5 C; EMSA/footprint: 20 mM Tris pH 8, 200 mM NaCl; NMR: 20 mM sodium phosphate pH 6.8, 130 mM …
[2] = target: the molecule itself; assay: crystal structure; HigA2 and the 17 bp operator fragment Opr17 mixed 1:1.2, 250 uM complex; sitting drop vapor diffusion; 0.2 M sodium chloride, 0.1 M Na HEPES pH 7.5, 12% (w/v) PEG 8000
HigA2 [3] = target: T1, HigA2 (Vibrio cholerae, UniProt Q9KMA5); assay: ITC; 25 C; ITC: 20 mM sodium phosphate pH 7.0, 150 mM NaCl, 1 mM EDTA, 25 or 5 C; EMSA/footprint: 20 mM Tris pH 8, 200 mM NaCl; NMR: 20 mM sodium phosphate pH 6.8, 130 mM; conditions: protein: recombinant; tags: C-terminal His6, uncleavable; chain copies: 2
HigA2IDR = target: T2, HigA2IDR (Vibrio cholerae, UniProt Q9KMA5); assay: as above; conditions: tags: C-terminal extra W; chain copies: 2
T2 chain: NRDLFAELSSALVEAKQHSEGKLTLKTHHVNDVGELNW

HigA2ΔIDR [4] = target: T3, HigA2ΔIDR (Vibrio cholerae, UniProt Q9KMA5, del1-36); assay: as above; conditions: protein: recombinant; tags: C-terminal His6, uncleavable; chain copies: 2
HigA2 [5] = target: T1, HigA2; assay: X-ray crystallography; HigA2 dimer; residues 37-104 visible; ITC: 20 mM sodium phosphate pH 7.0, 150 mM NaCl, 1 mM EDTA, 25 or 5 C; EMSA/footprint: 20 mM Tris pH 8, 200 mM NaCl; NMR: 20 mM sodium phosphate pH 6.8, 130 mM; conditions: protein: recombinant; tags: C-terminal His6, uncleavable; chain copies: 2; blunt
HigA2 [6] = target: T1, HigA2; assay: ITC; 5 C; ITC: 20 mM sodium phosphate pH 7.0, 150 mM NaCl, 1 mM EDTA, 25 or 5 C; EMSA/footprint: 20 mM Tris pH 8, 200 mM NaCl; NMR: 20 mM sodium phosphate pH 6.8, 130 mM; conditions: protein: recombinant; tags: C-terminal His6, uncleavable; chain copies: 2
HigA2Mut(14-25) = HigA2Mut(14-25) (Vibrio cholerae, UniProt Q9KMA5, L14S;V15S;E16A;A17T;K18A;Q19S;H20G;S21A;E22T;G23A;K24S;L25S); assay: as above; conditions: protein: recombinant; tags: C-terminal His6, uncleavable; chain copies: 2
HigA2ΔIDR [7] = target: T3, HigA2ΔIDR; assay: as above; conditions: protein: recombinant; tags: C-terminal His6, uncleavable; chain copies: 2
HigA2Mut(26-37) = HigA2Mut(26-37) (Vibrio cholerae, UniProt Q9KMA5, T26S;L27S;K28A;H30A;H31S;V32G;N33A;D34T;V35A;G36S;E37S); assay: as above; conditions: protein: recombinant; tags: C-terminal His6, uncleavable; chain copies: 2
HigA2Mut(2-13) = HigA2Mut(2-13) (Vibrio cholerae, UniProt Q9KMA5, N3S;R4A;D5T;L6A;F7S;A8G;E9A;L10T;S11A;A13S); assay: as above; conditions: protein: recombinant; tags: C-terminal His6, uncleavable; chain copies: 2
HigA2Shuff = HigA2Shuff (Vibrio cholerae, UniProt Q9KMA5, IDR sequence shuffled); assay: as above; conditions: protein: recombinant; tags: C-terminal His6, uncleavable; chain copies: 2

Q: “ATCTGTACGCTTGGTGCGTACACTT (double strand) [Opr25]” was tested. Which Kd [1] did it give?
A: The Kd was 10000 nM.

B1: HigA2 antitoxin from Vibrio cholerae (full-length, C-terminal histidine tag) (natural protein)
chain: MSNRDLFAELSSALVEAKQHSEGKLTLKTHHVNDVGELNISPDEIVSIREQFNMSRGVFARLLHTSSRTLENWEQGRSVPNGQAVTLLKLVQRHPETLSHIAEL
notes: Antitoxin HigA2 of the higBA2 toxin-antitoxin module, Vibrio cholerae; N-terminal disordered region (residues 2-36) and globular C-terminal HTH domain (residues 37-104); only residues 37-104 are seen in the crystal; The histidine tag is un-cleavable (pET21b, NdeI/XhoI); also called wild-type HigA2; full-length HigA2; not shown: histidine tag, C-terminal, kept
Q: How did the “stoichiometry N” value [2] turn out when B1 was run?
A: The value was 2.

B2: Opr45 (dsDNA)
DNA 1: AATTCTTGCCATCTGTACGCTTGGTGCGTACACTTCCTATATGAA
DNA 2: TTCATATAGGAAGTGTACGCACCAAGCGTACAGATGGCAAGAATT
Q: How did the Kd (HigA2 [3]) turn out when B2 was run?
A: Its Kd is 25.1 ± 5.2 nM.

Q: Does B2 bind (HigA2IDR)?
A: Result: no binding

Q: What about the Kd (HigA2ΔIDR [4]) of the same molecule?
A: Its Kd is 400 ± 50 nM.

B3: Opr17 (dsDNA)
DNA 1: GTACGCTTGGTGCGTAC
DNA 2: GTACGCACCAAGCGTAC
Q: Does B3 bind (HigA2 [5])?
A: Result: binds

B4: Opr25 (dsDNA)
DNA 1: ATCTGTACGCTTGGTGCGTACACTT
DNA 2: AAGTGTACGCACCAAGCGTACAGAT
Q: Which Kd (HigA2 [6]) does the source give for B4 here?
A: Its Kd is 15 ± 3 nM.

Q: And the Kd (HigA2Mut(14-25))?
A: Its Kd is 5100 ± 2400 nM.

Q: And the Kd (HigA2ΔIDR [7])?
A: Its Kd is 480 ± 160 nM.

Q: Does B4 bind (HigA2Mut(26-37))?
A: Result: no binding

Q: What about the Kd (HigA2Mut(2-13)) of the same molecule?
A: The Kd was 390 ± 130 nM.

Q: And the Kd (HigA2Shuff)?
A: The Kd was 37000 ± 20000 nM.

Q: What about the Kd (HigA2 [3]) of the same molecule?
A: The Kd was 13.8 ± 5.8 nM.
